Data taken from patent US20230192818A1.
Changes are numbered by the printed parent chain.

B1: 11-20 (antibody, V domains shown)
VH: QVQLVESGGGVVQPGRSLRLSCAASGFTFDDYAMHWVRQAPGKGLEWVAVISYDGSNKYYADSVKGRFTISRDNSKNTLYLQMNSLRAEDTAVYYCASPHSGSYWAAFDIWGQGTLVTVSS
VL: EIVLTQSPATLSLSPGERATLSCRASQSVGSYLAWYQQKPGQAPRLLIYDAVNRATGIPARFSGSGSGTDFTLTISSLEPEDFAVYYCQQRSLWPFGGGTKVEIK
B2: 12-1 (antibody, V domains shown)
VH: B1 VH with D30S, D31Y, A33G, I51T, S98R, H100Q, S101G, W105F
VL: B1 VL with G30S, Y32H, A51V, V52S, S92D, L93T, W94F, P95T
B3: 11-11 (antibody, V domains shown)
VH: QVQLVESGGGVVQPGRSLRLSCAASGFTFDNYAMHWVRQAPGKGLEWVAVISYDGSNKYYADSVKGRFTISRDNSKNTLYLQMNSLRAEDTAVYYCLREGILWDVWGQGTLVTVSS
VL: EIVLTQSPATLSLSPGERATLSCRASHNINNFLAWYQQKPGQAPRLLIYDTSNRATGIPARFSGSGSGTDFTLTISSLEPEDFAVYYCQQGRNWPPSSFGGGTKVEIK
B4: 11-15 (antibody, V domains shown)
VH: QVQLVESGGGVVQPGRSLRLSCAASGFIFSNYGMHWVRQAPGKGLEWVAVISYDGSDKYYADSVKGRFTISRDNSKNTLYLQMNSLRAEDTAVYYCARDDYMYGFEHWGQGTLVTVSS
VL: EMVVPQSPPTVSLSPGERATLSCRASQSVGSYLAWYQQKPGQAPRLLIYDAVNRATGIPARFSGSGSGTDFTLTISSLEPEDFAVYYCQQRSDSITFGGGTKVEIK
B5: 11-2 (antibody, V domains shown)
VH: QVQLVESGGGVVQPGRSLRLSCAASGFTFGTYAMHWVRQAPGKGLEWVAVVSTEGGTTYYADSVKGRFTISRDNSKNTLYLQMNSLRAEDTAVYYCAGSYGAYFDYWGQGTLVTVSS
VL: EIVLTQSPATLSLSPGERATLSCRASQSVNSYLAWYQQKPGQAPRLLIYDVSNRATGIPARFSGSGSGTDFTLTISSLEPEDFAVYYCQQFSNWPTFGGGTKVEIK
B6: 11-9 (antibody, V domains shown)
VH: B5 VH
VL: EIVLTQSPATLSLSPGERATLSCRASQSVSYYLAWYQQKPGQAPRLLIYDSSNRATGIPARFSGSGSGTDFTLTISSLEPEDFAVYYCQQRSNWQGNFGGGTKVEIK
B7: 12-6 (antibody, V domains shown)
VH: B1 VH with T28I, D30R, D31N, S98R, H100R, S101G, W105H, A106G
VL: B5 VL with V29L, N30G, S31N, V51S, F91R, S92N, N93W, W94P, P95Y
B8: 11-3 (antibody, V domains shown)
VH: QVQLVESGGGVVQPGRSLRLSCAASGFTFSNFAMHWVRQAPGKGLEWVAVISYDGNHEYYADSVKGRFTISRDNSKNTLYLQMNSLRAEDTAVYYCAKTNSGSYGGMFDYWGQGTLVTVSS
VL: EIVLTQSPATLSLSPGERATLSCRASQNIGNHLAWYQQKPGQAPRLLIYDASNRATGIPARFSGSGSGTDFTLTISSLEPEDFAVYYCQQRDNGPPEGTFGGGTKVEIK
B9: 12-7 (antibody, V domains shown)
VH: B8 VH with N31I, F32Y, N56T, H57N, T99S, N100R, S101G, G105Y, M107A
VL: B6 VL with V29L, S30G, Y31N, S92T, N93D, Q95P, G96P, N97S
B10: 12-4 (antibody, V domains shown)
VH: B1 VH with D30S, D31Y, A33G, S56T, K58D, S98K, W105R, A106G, A107Y, I110Y
VL: B6 VL with S30G, Y31S, Y32H, S51A, R91I, Q95P, G96L, N97T
B11: 11-1 (antibody, V domains shown)
VH: QVQLVESGGGVVQPGRSLRLSCAASGFTFGSYGMHWVRQAPGKGLEWVAVISYDGGDEYYADSVKGRFTISRDNSKNTLYLQMNSLRAEDTAVYYCARDISRYGYYGMDVWGQGTLVTVSS
VL: EIVLTQSPATLSLSPGERATLSCRASQSLGSFLAWYQQKPGQAPRLLIYDASNRATGIPARFSGSGSGTDFTLTISSLEPEDFAVYYCQQRALWPRLTFGGGTKVEIK
B12: 11-18 (antibody, V domains shown)
VH: B8 VH with S30G, N31T, F32Y, H57N, E58K, N100G, G105Y, G106S, M107W
VL: B11 VL with G30T, F32Y, A92H, L93Y, R96P, L97I
B13: 12-8 (antibody, V domains shown)
VH: B1 VH with D30N, D31N, A33V, S56T, K58D, S98R, P99G, H100E, A106G, I110Y
VL: B3 VL with H27Q, N30G, F32H, T51V, G91R, R92K, N93S, S97F, S98T
B14: 11-4 (antibody, V domains shown)
VH: QVQLVESGGGVVQPGRSLRLSCAASGFTFDNYAMHWVRQAPGKGLEWVAVISDDGRNKYYADSVKGRFTISRDNSKNTLYLQMNSLRAEDTAVYYCAKDNYYDSSGYYGGGMDVWGQGTLVTVSS
VL: B6 VL with S30G, Y31S, S51A, S52V, S92F, N93T, Q95P, G96T, N97T
B15: 12-5 (antibody, V domains shown)
VH: QVQLVESGGGVVQPGRSLRLSCAASGFTFSYYGMHWVRQAPGKGLEWVAVTSYDGSNKYYSDSVKGRFTISRDNSKNTLYLQMNSLRAEDTAVYYCARPKSGSYATYFDYWGQGTLVTVSS
VL: B6 VL with S28N, S30G, Y31Q, Y32S, S51A, S92E, Q95P, G96P, N97T
B16: 11-6 (antibody, V domains shown)
VH: QVQLVESGGGVVQPGRSLRLSCAASGFTFGTYAMHWVRQAPGKGLEWVAVVSTEGGTTYYADSVKGRFTISRDNSKNTLYLQMNSLRAEDTAVYYCAGEYYDSSGSSIDYWGQGTLVTVSS
VL: B6 VL with S30D, Y31S, Y32S, S51A, R91Q, Q95P, N97T
B17: 11-16 (antibody, V domains shown)
VH: QVQLVESGGGVVQPGRSLRLSCAASGFTFSDHYMHWVRQAPGKGLEWVAVISYDGSNEYYADSVKGRFTISRDNSKNTLYLQMNSLRAEDTAVYYCAKDLGPAGVDYWGQGTLVTVSS
VL: B6 VL with V29L, S30G, Y31R, R91Y, S92G, N93D, Q95P, G96E, N97T
B18: 11-10 (antibody, V domains shown)
VH: QVQLVESGGGVVQPGRSLRLSCAASGFIFNNYGMHWVRQAPGKGLEWVAVISYDGSNIYYADSVKGRFTISRDNSKNTLYLQMNSLRAEDTAVYYCARDYNDGIGSYTGAFDSWGQGTLVTVSS
VL: B6 VL with Y31T, Y32S, S51A, S52T, R91H, S92Y, N93S, Q95P, G96L, N97T
B19: 12-2 (antibody, V domains shown)
VH: B1 VH with T28I, D30R, D31S, N57S, S98R, H100S, W105F, A106P, A107P, I110Y
VL: B6 VL with S30D, Y31S, Y32R, S51T, N93T, Q95P, G96P, N97V

Target: biotinylated SARS-CoV-2 S1 variant B.1.351 (Example 5) (SARS-CoV-2) (UniProt P0DTC2)
Assay: phage ELISA screening

Binder | ELISA
B1 | 3.42
B2 | 29.2
B3 | 6.43
B4 | 4.97
B5 | 19.4
B6 | 9.14
B7 | 22.4
B8 | 17.3
B9 | 22.2
B10 | 23.5
B11 | 21.7
B12 | 3.7
B13 | 21.4
B14 | 16.3
B15 | 22.8
B16 | 12.6
B17 | 4.65
B18 | 7.06
B19 | 25.9
